Experimental data published in PMC10977726 (PLOS ONE, 2024).

Molecular target: human IgG Fc (Biotin-SP-ChromPure Human IgG, Fc fragment) (human, biotin (Biotin-SP))
Test: SPR
Conditions: both partners purified

ENLYFQGECKGKGAKCSSISIHDAHCCTGSCRSGKC (designed binder) [His(6)-SUMO-TEV-Ig-CON-5 fusion protein]
Kd: 22.2 nM
